This note sets out measurements from US20040253233A1 (CENTRO DE INMUNOLOGIA MOLECULAR CIM, published 2004).

The target of the test is T1, murine monoclonal antibody P3.
T1 construct: Murine IgM with kappa light chain from hybridoma ECACC 94113026, coated on the ELISA plate; FR4 segments are printed short; also called Mab P3; MAb P3
In words: ELISA, plate coated with Mab P3, purified chimeric 1E10 detected with goat anti-human antibody-alkaline phosphatase, absorbance at 405 nm. The protocol: For recombinant MAb 1 E10, Microtiter plates were coated with Mab P3. After washing with PBST (saline phosphate buffered solution containing 0.05% Tween 20), unspecific binding was blockade with bovine sera albumin (BSA) 1% in PBST, incubated for one hour at 37° C.
The wells were washed and incubated for 1 hour at 37° C. with purified recombinant Mab 1E10. The wells were washed with PBST and a goat anti-human antibody conjugated with alkaline phosphatase was added and incubated at 37° C. for one hour. Finally, the wells were washed with PBST and the substrate buffer containing p-nitrophenylphosphate was added.
For orientation: In an ELISA, binding on a coated surface is turned into a signal by an enzyme label.

T1 sequence (VH, as listed by the source, chain 1 of 2): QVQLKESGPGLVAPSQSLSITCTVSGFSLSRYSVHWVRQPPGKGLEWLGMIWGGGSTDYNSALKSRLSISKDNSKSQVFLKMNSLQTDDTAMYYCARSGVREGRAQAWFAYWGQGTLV
T1 sequence (V domain, as listed by the source, chain 2 of 2): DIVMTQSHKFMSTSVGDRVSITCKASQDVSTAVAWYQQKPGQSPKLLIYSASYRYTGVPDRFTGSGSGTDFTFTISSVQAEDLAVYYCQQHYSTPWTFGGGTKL

B1: chimeric Mab 1E10 (antibody, V domains shown)
VH: QVQLQQSGAELVKPGASVKLSCKASGYTFTSYDINWVRQRPEQGLEWIGWIFPGDGSTKYNEKFKGKATLTTDKSSSTAYMQLSRLTSEDSAVYFCAREDYYDNSYYFDYWGQGTTLTV
VL: DIQMTQTTSSLSASLGDRVTISCRASQDISNYLNWYQQKPDGTVKLLIYYTSRLHSGVPSRFSGSGSGTDYSLTISNLEQEDIATYFCQQGNTLPWTFGGGTKLESK
notes: FR4 segments are printed short, so the variable domains may lack their last residues; also called Mab 1E10 chimeric; recombinant MAb 1E10
Regarding B1, the binding result was “binds”.
